Data on two substances can be found in patent US20020106374A1.

The target of the test is HIV-1JR-FL envelope glycoproteins gp120/gp41 (HIV-1 JR-FL). Put plainly: cell-based or functional assay.

“CD4-IgG2 (from UniProt P01730 26-203; P01730 26-203) (Fc fusion)”: the IC90, inhibition of HIV-1JR-FL Env-mediated cell-cell fusion (RET assay) worked out at 11 nM; the IC90, inhibition of HIV-1JR-FL virus-cell fusion (luciferase reporter virus, HeLa-CD4+CCR5+ cells) is 12 nM; the K (equal to IC50), inhibition of env-mediated membrane fusion (RET) between HeLa-EnvJR-FL and PM1 cells turned out to be 0.31 µg/mL; the activity in the RET assay after co-incubation of HeLa-Env cells, PM1 cells and inhibitor for 2 h at 25° C., washing and warming to 37° C. came to 12 fold lower. The same substance registered a potency in the washout RET assay (drug pre-incubated with HeLa-Env cells, washed, then PM1 cells added) against the standard assay of 6 fold lower.

With T-20 (peptide), the IC90, inhibition of HIV-1JR-FL Env-mediated cell-cell fusion (RET assay) worked out at 22 nM; the IC90, inhibition of HIV-1JR-FL virus-cell fusion (luciferase reporter virus, HeLa-CD4+CCR5+ cells) was found to be 45 nM; the K (equal to IC50), inhibition of env-mediated membrane fusion (RET) between HeLa-EnvJR-FL and PM1 cells came out at 0.017 µg/mL; the increase in IC50 in the RET assay after co-incubation of HeLa-Env cells, PM1 cells and inhibitor for 2 h at 25° C., washing and warming to 37° C. (fold increase in IC50) is greater than 250.
